{"source": "patent US20250277030A1", "about": "“ANTI-NAPI2B ANTIBODIES AND METHODS OF USE” (Zymeworks BC Inc., priority 2022, published 2025)", "key": {"mouse NaPi2b": {"molecular_target": "T1, mouse NaPi2b (Mus musculus, UniProt Q9DBP0)", "T1 construct": "expressed in transfected cells; host or cells: HEK293-6e", "T1 sequence (Q9DBP0 1-697)": "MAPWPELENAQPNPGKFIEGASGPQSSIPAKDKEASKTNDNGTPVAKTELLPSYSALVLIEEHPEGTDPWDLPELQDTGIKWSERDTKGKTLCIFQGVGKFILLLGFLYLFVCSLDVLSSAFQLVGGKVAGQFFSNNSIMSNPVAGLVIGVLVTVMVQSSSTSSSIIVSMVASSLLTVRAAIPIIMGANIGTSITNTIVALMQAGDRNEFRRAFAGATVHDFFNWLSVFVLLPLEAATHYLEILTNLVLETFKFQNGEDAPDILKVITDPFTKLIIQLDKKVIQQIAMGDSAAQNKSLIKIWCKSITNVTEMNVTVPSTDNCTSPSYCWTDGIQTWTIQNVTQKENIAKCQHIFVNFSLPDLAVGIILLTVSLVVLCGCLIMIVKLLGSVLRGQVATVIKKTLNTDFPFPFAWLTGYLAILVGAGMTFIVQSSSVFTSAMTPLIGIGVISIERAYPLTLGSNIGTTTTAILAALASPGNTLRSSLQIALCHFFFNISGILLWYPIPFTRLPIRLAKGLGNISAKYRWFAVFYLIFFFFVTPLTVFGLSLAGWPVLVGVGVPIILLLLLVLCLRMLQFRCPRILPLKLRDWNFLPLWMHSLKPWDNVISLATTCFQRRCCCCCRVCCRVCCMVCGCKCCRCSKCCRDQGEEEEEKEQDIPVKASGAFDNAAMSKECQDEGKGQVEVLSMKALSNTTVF", "assay": "Flow cytometry binding to HEK293-6e cells transfected with mouse NaPi2b (Example 5)", "conditions": "transfected HEK293-6e cells", "experimental": "The binding cross-reactivity of humanized antibody variant v29456 to human, cynomolgus and mouse NaPi2b was assessed by flow cytometry using HEK293-6e transfected cells.\n(§1) Briefly, HEK293-6e cells were transfected for ˜24 hours to transiently express human NaPi2b, cynomolgus or mouse NaPi2b, at 1 μg of DNA per 1 million cells. Following transfection, 50,000 cells per well were seeded in V-bottom 96-well plates and incubated with 200 nM of primary antibody for 18-24 hours at 4° C. to prevent internalization. Post-incubation, cells were washed and stained with anti-Human IgG Fc AF647 conjugate (Jackson Immuno Research Labs, West Grove, PA, Cat. No. 109-605-098, Lot. No. 124868) at 4° C. for 1 hour. Following staining and washing, fluorescence was detected by flow cytometry on BD LSRFortessa™ Cell Analyzer (BD Biosciences, Franklin Lake, NJ) with 10,000 minimum events collected per well. The AF647/APC-A GeoMean (fluorescence signal geometric mean, proportional to anti-Human AF647 binding) was calculated for the live singlet cell population for each primary antibody using FlowJo™ v8 software (BD Biosciences, Franklin Lake, NJ). The Bmax and Kd of each primary antibody were calculated using GraphPad Prism Version 9 (GraphPad Software, San Diego, CA)"}, "[1]": {"molecular_target": "T2, NaPi2b expressed on TOV-21G cells (Homo sapiens, UniProt O95436)", "T2 construct": "IGROV-1 and TOV-21G cells express endogenous NaPi2b at high and moderate levels, respectively; endogenous in cells; host or cells: TOV-21G", "T2 sequence (O95436 1-690)": "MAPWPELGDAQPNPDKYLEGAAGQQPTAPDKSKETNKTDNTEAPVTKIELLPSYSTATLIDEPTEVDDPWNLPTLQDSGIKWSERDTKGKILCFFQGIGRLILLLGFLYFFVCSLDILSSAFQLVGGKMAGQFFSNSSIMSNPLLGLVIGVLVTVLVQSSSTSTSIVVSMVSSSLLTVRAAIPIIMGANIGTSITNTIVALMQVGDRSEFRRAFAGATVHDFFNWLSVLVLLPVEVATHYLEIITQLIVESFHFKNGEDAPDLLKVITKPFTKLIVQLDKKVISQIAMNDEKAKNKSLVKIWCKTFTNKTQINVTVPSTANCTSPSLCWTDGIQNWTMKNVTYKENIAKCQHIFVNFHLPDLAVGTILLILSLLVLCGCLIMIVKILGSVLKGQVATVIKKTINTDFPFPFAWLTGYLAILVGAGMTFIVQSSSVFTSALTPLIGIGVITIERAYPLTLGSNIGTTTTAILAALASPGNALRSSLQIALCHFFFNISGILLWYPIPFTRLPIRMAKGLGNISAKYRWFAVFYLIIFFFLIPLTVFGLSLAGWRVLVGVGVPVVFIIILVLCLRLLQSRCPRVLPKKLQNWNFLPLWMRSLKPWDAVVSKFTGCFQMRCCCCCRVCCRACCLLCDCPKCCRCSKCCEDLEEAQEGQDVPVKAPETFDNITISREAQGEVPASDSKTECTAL", "assay": "Cellular binding to TOV-21G cells by flow cytometry (Example 19)", "conditions": "NB = no binding (apparent Kd >150 nM)", "experimental": "Briefly, cells were seeded at 50,000 cells/well in conical-bottom 96-well plates and treated with test antibody for 24 hours at 4° C. to prevent internalization. Palivizumab (anti-RSV antibody, v22277) was included as a negative control. […] Following incubation, cells were washed and stained with anti-Human IgG Fc AF647 conjugate (Jackson Immuno Research Labs, West Grove, PA; Cat. No. 109-605-098) at 4° C. for 30 min. Following incubation and washing, fluorescence was detected by flow cytometry on a BD LSRFortessa™ Cell Analyzer (BD Biosciences, Franklin Lake, NJ) with 1,000 minimum events collected per well. The AF647/APC-A GeoMean (fluorescence signal geometric mean, proportional to anti-Human AF647 binding) was calculated for the live cell population using FlowJo™ Version 10.8.1 (BD Biosciences, Franklin Lake, NJ) and plotted for each test antibody using GraphPad Prism Version 9 (GraphPad Software, San Diego, CA).\nThe ability of the humanized antibody variants v38591 and v29456 to bind to NaPi2b expressed on cells was assessed on endogenous NaPi2b-expressing tumor cell lines IGROV-1 (ovarian adenocarcinoma) and TOV-21G (ovarian carcinoma) by flow cytometry. IGROV-1 and TOV-21G cells express endogenous NaPi2b at high and moderate levels, respectively, as described in Example 10.\nCellular binding was performed according to methods described in Example 13."}, "[2]": {"molecular_target": "T3, NaPi2b expressed on HCC-78 cells (Homo sapiens, UniProt O95436)", "T3 construct": "endogenous in cells; host or cells: HCC-78", "T3 sequence (O95436 1-690)": "T2 sequence (O95436 1-690)", "assay": "Cellular binding of antibody and ADCs to HCC-78 cells by flow cytometry (Example 14)", "experimental": "as §1\nThe ability of ADCs to bind to cells expressing NaPi2b was assessed. […] Binding to endogenous high NaPi2b-expressing cell lines IGROV-1 and HCC-78 was assessed by flow cytometry according to methods described in Example 5."}}, "note": "pKd: −log10 of the molar value.", "data": [{"substance": "v22277: anti-RSV antibody palivizumab, negative control; has a heterodimeric Fc [reference compound]", "values": [{"measurement": "Binding to mouse NaPi2b, in words", "setting": "mouse NaPi2b", "result": "did not bind"}, {"measurement": "pKd", "setting": "[1]", "result": "< 6.82"}, {"measurement": "Binding to HCC-78 cells, in words", "setting": "[2]", "result": "did not bind"}]}]}
